Laboratory results: publication doi:10.1101/2025.08.27.672506

Target: wild-type ectodomain of HA from A/Malaysia/1706215/2007 (H1N1) (influenza A virus A/Malaysia/1706215/2007 (H1N1))
Assay: SEC

## wild-type ectodomain of HA from A/Malaysia/1706215/2007 (H1N1) (domain or fragment)
  stoichiometry N: 3
